Results: patent US20120053125A1
Where a chain is given by its changes, count along the chain named. Names and notes keep the numbering of the source.

Tests used:
[1] = target: Protein Phosphatase-1 (PP1), purified catalytic subunit (New England BioLabs) (UniProt P62139); test: cell-based or functional assay
[2] = target: endogenous type-1 protein phosphatase (PP1) of adult rat cardiomyocyte lysates (rat); test: cell-based or functional assay

Sequence of Protein Phosphatase-1 (PP1), purified catalytic subunit (New England BioLabs) (P62139 whole entry): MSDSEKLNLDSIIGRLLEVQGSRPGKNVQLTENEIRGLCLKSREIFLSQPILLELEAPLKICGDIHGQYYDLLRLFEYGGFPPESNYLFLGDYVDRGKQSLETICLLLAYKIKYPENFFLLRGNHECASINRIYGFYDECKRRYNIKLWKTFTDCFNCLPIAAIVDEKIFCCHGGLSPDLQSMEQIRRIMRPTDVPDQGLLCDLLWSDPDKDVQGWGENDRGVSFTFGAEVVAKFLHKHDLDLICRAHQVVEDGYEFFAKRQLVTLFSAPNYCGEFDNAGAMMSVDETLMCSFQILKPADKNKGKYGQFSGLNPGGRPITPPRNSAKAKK

B1: PKA-phosphorylated human I-1 wild type (protein)
chain: MEQDNSPRKIQFTVPLLEPHLDPEAAEQIRRRRPTPATLVLTSDQSSPEIDEDRIPNPHLKSTLAMSPRQRKKMTRITPTMKELQMMVEHHLGQQQQGEEPEGAAESTGTQESRPPGIPDTEVESRLGTSGTAKKTAECIPKTHERGSKEPSTKEPSTHIPPLDSKGANSV
modifications: phosphothreonine at Thr-35 (phosphorylated in vitro by PKA)
IC50 of inhibition of PP1 activity (dephosphorylation of 32P-MyBP) [1]: 3.2 nM

B2: human I-1 (S67D/T75D) (protein)
chain: B1 chain with S67D, T75D
PP1 activity remaining after PKA stimulation in infected rat cardiomyocytes [2]: 2 fold

B3: human I-1 (S67A) phosphorylated by PKC-α (protein)
chain: B1 chain with S67A
modifications: phosphothreonine at Thr-75 (phosphorylated in vitro by PKC-α; 0.35 mol Pi/mol protein)
increase of purified PP1c activity compared to I-1 wild-type [1]: 25%

B4: human I-1 wild type phosphorylated first by PKC-α and then by PKA (protein)
chain: B1 chain
modifications: phosphothreonine at Thr-35 (PKA); phosphoserine at Ser-67 and phosphothreonine at Thr-75 (PKC-α)
IC50 of inhibition of PP1 activity (dephosphorylation of 32P-MyBP) [1]: 4.9 nM

B5: human I-1 (T75D) (protein)
chain: B1 chain with T75D
PP1 activity remaining after PKA stimulation in infected rat cardiomyocytes [2]: 2 fold
increase in type-1 phosphatase activity in infected rat cardiomyocyte lysates compared to Ad.I-1WT and Ad.GFP [2]: 27%
increase of purified PP1c activity compared to I-1 wild-type [1]: 23%

B6: human I-1 (S67D) (protein)
chain: B1 chain with S67D
PP1 activity remaining after PKA stimulation in infected rat cardiomyocytes [2]: 2 fold
